{"source": "patent US20250250318A1", "about": "(US Dept. of Health and Human Services, published 2025)", "test_in_all_cases": "cell-based or functional assay", "key": {"[1]": {"target": "WT KRAS peptide (SEQ ID NO: 55) pulsed on APCs from the HLA-DRB1 mismatch donor (human)", "sequence (P01111 1-24)": "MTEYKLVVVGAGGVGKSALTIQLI"}, "[2]": {"target": "WT KRAS peptide (SEQ ID NO: 55) pulsed on autologous APCs/DCs of the patient of Example 1 (Patient 4148) (human, UniProt P01903 26-254)", "sequence (P01903 26-254, chain 2 of 2)": "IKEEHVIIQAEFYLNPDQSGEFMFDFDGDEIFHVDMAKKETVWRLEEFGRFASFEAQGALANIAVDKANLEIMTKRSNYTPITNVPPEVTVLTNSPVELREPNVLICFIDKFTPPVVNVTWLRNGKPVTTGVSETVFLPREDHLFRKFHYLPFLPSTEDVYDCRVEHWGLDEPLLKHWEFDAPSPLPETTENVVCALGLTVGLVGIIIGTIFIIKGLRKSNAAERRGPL"}, "[3]": {"target": "WT KRAS peptide (SEQ ID NO: 55) pulsed on APCs from a donor with a DRB1 07:01 haplotype (human, UniProt P01903 26-254)"}, "[4]": {"target": "WT KRAS peptide (SEQ ID NO: 55) pulsed on APCs from a donor with a DRB1 01:01 haplotype (human, UniProt P01903 26-254)"}, "[5]": {"target": "KRAS^G12V peptide (SEQ ID NO: 53) pulsed on APCs from the HLA-DRB1 mismatch donor (human)", "sequence (Q05147 1-24, stated change not applied)": "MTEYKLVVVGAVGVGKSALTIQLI"}}, "data": [{"binder": "KRAS^G12V-HLA-DRB1*07:01 TCR of Example 2 (cysteine substituted, LVL-modified murine constant region) (TCR, V domains shown) V domain 1: GENVEQHPSTLSVQEGDSAVIKCTYSDSASNYFPWYKQELGKGPQLIIDIRSNVGEKKDQRIAVTLNKTAKHFSLHITETQPEDSAVYFCAASTGGGNKLTFGTGTQLKVEL V domain 2: LLLGPAGSGLGAVVSQHPSRVICKSGTSVKIECRSLDFQATTMFWYRQFPKQSLMLMATSNEGSKATYEQGVEKDKFLINHASLTLSTLTVTSAHPEDSSFYICSAREGAGGMGTQYFGPGTRLLVLE", "values": [{"measurement": "IFN-γ secretion measured by ELISPOT", "setting": "[1]", "value": 58, "unit": "ELISPOT count"}, {"measurement": "IFN-γ secretion measured by ELISPOT", "setting": "[2]", "value": "~354", "unit": "ELISPOT count"}, {"measurement": "IFN-γ secretion measured by ELISPOT", "setting": "[3]", "value": "~291", "unit": "ELISPOT count"}, {"measurement": "IFN-γ secretion measured by ELISPOT", "setting": "[4]", "value": 2, "unit": "ELISPOT count"}, {"measurement": "IFN-γ secretion measured by ELISPOT", "setting": "[5]", "value": 41, "unit": "ELISPOT count"}]}]}
